According to patent publication CN110563841A:

Key:
[1] = target: 重组Grb2蛋白 (recombinant Grb2 protein) (UniProt P62993); assay: ELISA, recombinant Grb2 coated, antibody 100 ng/mL, goat anti-human IgG Fc-HRP secondary
[2] = target: 重组Grb2蛋白 (recombinant Grb2 protein) (UniProt P62993); assay: ELISA, recombinant Grb2 coated, antibody 100 ng/mL, goat anti-mouse IgG Fc-HRP secondary (does not detect human IgG)

UniProt P62993, sequence (P62993 whole entry): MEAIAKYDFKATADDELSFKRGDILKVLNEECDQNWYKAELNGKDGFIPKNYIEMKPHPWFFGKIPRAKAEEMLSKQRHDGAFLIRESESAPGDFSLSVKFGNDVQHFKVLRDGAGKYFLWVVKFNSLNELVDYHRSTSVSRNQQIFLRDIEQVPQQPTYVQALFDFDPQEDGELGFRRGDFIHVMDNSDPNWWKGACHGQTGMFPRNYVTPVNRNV

## 人IgG1 (irrelevant human IgG1 control antibody)
[1]
  OD490: 0.073
[2]
  OD490: 0.073
